Reference: patent US9938510B2, “Photobacterium sp. alpha-2-6-sialyltransferase variants” (The Regents of the University of California, priority 2014, dated 2018)

Columns and labels:
Assay type in all cases: biochemical
[1] = Sialylation assay with periodic addition of CMP-Neu5Ac
Description: Two reactions were set up at 20° C. in MES buffer (200 mM, pH 5.0) containing Psp2,6ST(15-501)-His6 (6.0 μM), CMP-Neu5Ac (1 mM), and GalNAcα2AA (1 mM) in a total volume of 50 μL. One of the reactions was used as a control and was incubated for 4 h. The other was incubated for 1 h, 2 equivalents of CMP-Neu5Ac was then added. The same dose was added every hour for up to 4 h reaction duration. Aliquots (2 μL each) were withdrawn and the reactions were stopped by adding 10 μL of cold ethanol followed by centrifugation. The samples were diluted and kept on ice until aliquots of 8 μL were injected and analyzed by a Shimadzu LC-6AD system equipped with a membrane on-line degasser, a temperature control unit, and a fluorescence detector (Shimadzu RF-10AXL). A reverse-phase Premier C18 column (250×4.6 mm i.e., 5 μm particle size, Shimadzu) protected with a C18 guard column cartridge was used. The mobile phase was 25% acetonitrile in water. The 2-aminobenzoic acid (2AA)-labeled fluorescent acceptor and the product formed were detected with excitation at 315 nm and emission at 400 nm.

[2] = Kinetics of CMP-Neu5Ac donor hydrolysis activity (capillary electrophoresis)
Description: Procedure for Kinetic Analysis of Donor Hydrolysis by His6-Pd2,6ST(16-497), Psp26ST(15-501)-His6 and its A235D and A366G Mutants
The kinetics study for the donor hydrolysis activity of His6-Pd2,6ST(16-497) was carried out at 37° C. for 20 min in Tris-HCl buffer (200 mM, pH 8.0). The kinetics study for the donor hydrolysis activities of Psp26ST(15-501)-His6 and its A235D mutant was carried out at 20° C. for 10 min in Tris-HCl buffer (200 mM, pH 8.0). All reactions were performed in duplicate in a total volume of 10 μL containing varied concentrations of CMP-Neu5Ac (10, 20, 40, 60, 80 and 100 mM) and the enzyme (6 μM). Reactions were stopped by adding 10 μL of ethanol and then centrifuged. The supernatants were analyzed by a P/ACETM capillary electrophoresis (CE) system equipped with a photodiode array (PDA) detector (Beckman Coulter, Inc., Fullerton, Calif.). CE conditions were as follows: 75 μm i.d. capillary, 25 KV/80μÅ, 5 s vacuum injections, monitored at 200 nm and 254 nm, the running buffer used was sodium tetraborate (25 mM, pH 9.4). Apparent kinetic parameters were obtained by fitting the experimental data (the average values of duplicate assay results) into the Michaelis-Menten equation using Grafit 5.0.

[3] = Sialyltransferase activity assays, statements not tied to one acceptor (LacβMU, GalNAcα2AA, GalNAcαSer, GalNAcαThr); conditions: α-linked N-acetyl galactosaminides, especially GalNAcα2AA or GalNAcαThr, as acceptor
Description: When LacβMU was used as an acceptor, the assay was performed in duplicate in 10 μL of Tris-HCl buffer (100 mM, pH 8.0) containing CMP-Neu5Ac (1 mM), LacβMU (1 mM), MgCl2 (20 mM), wild-type Psp2,6ST(15-501)-His6 or its mutant (0.3 μM). When an α-GalNAc-terminated acceptor was used, the assay was performed in duplicate in 10 μL of Tris-HCl buffer (100 mM, pH 8.0 for GalNAcαSer/Thr) or NaOAc-HOAc (100 mM, pH 5.0 for GalNAcα2AA) containing CMP-Neu5Ac (1.5 mM), the acceptor (1 mM), MgCl2 (20 mM), wild-type Psp2,6ST(15-501)-His6 or its mutant (3.0 μM). Reactions were allowed to proceed at 20° C. for 20 min and stopped by adding 10 μL of cold ethanol. The analysis of sialylated product conversion was performed using the HPLC system as described above for sialyltransferase activity assay. The 4-methylumbelliferone (MU)-labeled fluorescent acceptor and the product formed were detected with excitation at 325 nm and emission at 372 nm. The 2-aminobenzoic acid (2AA)-labeled fluorescent acceptors and the products formed were detected with excitation at 315 nm and emission at 400 nm. The 9-fluorenylmethylcarbamate (Fmoc)-labeled fluorescent acceptors and the products formed were detected with excitation at 262 nm and emission at 313 nm.

[4] = Apparent sialyltransferase kinetics, GalNAcαThr as acceptor
Description: (§1) Reactions were carried out in duplicate at 20° C. for 20 minutes in a total volume of 10 μL in a proper buffer at the optimal pH according to the pH profile of the wild-type enzyme (see, Ding, 2011, supra). When LacβMU was used as an acceptor, the conditions were: Tris-HCl buffer (200 mM, pH 8.0), enzyme (0.3 μM), varied concentrations of LacβMU (0.1, 0.25, 0.4, 1.0, 2.0, 4.0, and 6.0 mM) with a fixed concentration of CMP-Neu5Ac (1.0 mM) or varied concentrations of CMP-Neu5Ac (0.1, 0.25, 0.4, 1.0, 2.0, 4.0, and 6.0 mM) with a fixed concentration of LacβMU (1.0 mM). When GalNAcα2AA was used as an acceptor, the conditions were: NaOAc-HOAc buffer (200 mM, pH 5.0), enzyme (6 μM), varied concentrations of GalNAcα2AA (0.5, 0.8, 1.0, 2.0, 4.0, 8.0, and 10.0 mM) and a fixed concentration of CMP-Neu5Ac (4.0 mM) or varied concentrations of CMP-Neu5Ac (0.5, 1.0, 2.0, 4.0, 5.0, 8.0, and 10.0 mM) with a fixed concentration of GalNAcα2AA (1.0 mM). When GalNAcαSer was used as an acceptor, the conditions were: Tris-HCl buffer (200 mM, pH 8.0), enzyme (0.6 μM), varied concentrations of GalNAcαSer (0.1, 0.25, 0.5, 1.0, 2.0, 4.0, 8.0, and 10.0 mM) and a fixed concentration of CMP-Neu5Ac (2.0 mM). […]

[5] = Apparent sialyltransferase kinetics, GalNAcαSer as acceptor
Description: as §1

[6] = Apparent sialyltransferase kinetics, GalNAcα2AA as acceptor
Description: as §1

Row | Molecule | sialylation yield ([1]; after an additional two equivalents of CMP-Neu5Ac, in 15 min) [%] | sialylation yield ([1]; after the fourth dose (2 equivalents) of CMP-Neu5Ac) [%] | sialylation yield ([1]; after the third dose (2 equivalents) of CMP-Neu5Ac) [%] | sialylated product Neu5Acα2-6GalNAcα2AA formed ([1]; one equivalent of CMP-Neu5Ac, MES pH 5.0, 20° C., enzyme 6.0 μM, GalNAcα2AA 1 mM) [%] | CMP-Neu5Ac hydrolysis efficiency relative to sialyltransferase activity (more efficient) ([2]; versus kcat/Km with GalNAcα2AA as acceptor) | CMP-Neu5Ac hydrolysis efficiency relative to sialyltransferase activity (lower) ([2]; versus kcat/Km with LacβMU as acceptor) [fold] | sialyltransferase activity compared to wild-type [3] | catalytic efficiency (kcat/Km) higher than the wild-type enzyme [4] [fold] | catalytic efficiency (kcat/Km) higher than the wild-type enzyme [5] [fold] | catalytic efficiency (kcat/Km) higher than the wild-type enzyme [6] [fold]
1 | Psp26ST(15-501)-His6: recombinant Photobacterium sp. JH-ISH-224 α2-6-sialyltransferase, residues 15-501, C-terminal His6, wild-type; SEQ ID NO: 23 (protein, C-terminal His6; Synthetic Psp26ST(15-501) WILD TYPE) CNNSEENTQSIIKNDINKTIIDEEYVNLEPINQSNISFTKHSWVQTCGTQQLLTEQNKESISLSVVAPRLDDDEKYCFDFNGVSNKGEKYITKVTLNVVAPSLEVYVDHASLPTLQQLMDIIKSEEENPTAQRYIAWGRIVPTDEQMKELNITSFALINNHTPADLVQEIVKQAQTKHRLNVKLSSNTAHSFDNLVPILKELNSFNNVTVTNIDLYDDGSAEYVNLYNWRDTLNKTDNLKIGKDYLEDVINGINEDTSNTGTSSVYNWQKLYPANYHFLRKDYLTLEPSLHELRDYIGDSLKQMQWDGFKKFNSKQQELFLSIVNFDKQKLQNEYNSSNLPNFVFTGTTVWAGNHEREYYAKQQINVINNAINESSPHYLGNSYDLFFKGHPGGGIINTLIMQNYPSMVDIPSKISFEVLMMTDMLPDAVAGIASSLYFTIPAEKIKFIVFTSTETITDRETALRSPLVQVMIKLGIVKEENVLFWA | 17 | 33 | 25 | 7.3 | about 14 fold | 13 | – | – | – | –
2 | A366G: Photobacterium sp. JH-ISH-224 α2-6-sialyltransferase residues 15-501, A366G point mutation, C-terminal His6; SEQ ID NO: 2 (protein, C-terminal His6; Synthetic Psp26ST(15-501) A366G) CNNSEENTQSIIKNDINKTIIDEEYVNLEPINQSNISFTKHSWVQTCGTQQLLTEQNKESISLSVVAPRLDDDEKYCFDFNGVSNKGEKYITKVTLNVVAPSLEVYVDHASLPTLQQLMDIIKSEEENPTAQRYIAWGRIVPTDEQMKELNITSFALINNHTPADLVQEIVKQAQTKHRLNVKLSSNTAHSFDNLVPILKELNSFNNVTVTNIDLYDDGSAEYVNLYNWRDTLNKTDNLKIGKDYLEDVINGINEDTSNTGTSSVYNWQKLYPANYHFLRKDYLTLEPSLHELRDYIGDSLKQMQWDGFKKFNSKQQELFLSIVNFDKQKLQNEYNSSNLPNFVFTGTTVWGGNHEREYYAKQQINVINNAINESSPHYLGNSYDLFFKGHPGGGIINTLIMQNYPSMVDIPSKISFEVLMMTDMLPDAVAGIASSLYFTIPAEKIKFIVFTSTETITDRETALRSPLVQVMIKLGIVKEENVLFWA | – | – | – | – | – | – | improved sialyltransferase activity | 2.1 | 1.2 | 1.3
